Measured values taken from patent publication US11504441B2, “Radiolabeled compounds targeting the prostate-specific membrane antigen” (PROVINCIAL HEALTH SERVICES AUTHORITY, priority 2019, dated 2022).

Test: in vivo
Design: species or system mice
Details: male, NODSCID 1L2RγKO, mouse, iv, total radioactivity

COc1ccc(CCCC(=O)NCC(=O)N[C@@H](CCCCNC(=O)CN2CCN(CC(=O)O)CCN(CC(=O)O)CCN(CC(=O)O)CC2)C(=O)NC[C@H]2CC[C@H](C(=O)N[C@@H](Cc3c4ccccc4cc4ccccc34)C(=O)NCCCC[C@H](NC(=O)N[C@@H](CSCC(=O)O)C(=O)O)C(=O)O)CC2)cc1 [177Lu-HTK04048, metal not drawn]
tissue uptake at 1 h (Adrenal glands uptake): 3.95 ± 0.34 %ID/g | tissue uptake at 4 h (Adrenal glands uptake): 2.1 ± 0.22 %ID/g | tissue uptake at 24 h (Adrenal glands uptake): 0.49 ± 0.04 %ID/g | tissue uptake at 72 h (Adrenal glands uptake): 0.34 ± 0.03 %ID/g | tissue uptake at 120 h (Adrenal glands uptake): 0.37 ± 0.09 %ID/g | tissue uptake at 1 h (Blood uptake): 17.7 ± 2.05 %ID/g | tissue uptake at 4 h (Blood uptake): 12.3 ± 1.56 %ID/g | tissue uptake at 24 h (Blood uptake): 0.68 ± 0.11 %ID/g | tissue uptake at 72 h (Blood uptake): 0.12 ± 0.01 %ID/g | tissue uptake at 120 h (Blood uptake): 0.05 ± 0.02 %ID/g | tissue uptake at 1 h (Bone uptake): 1.04 ± 0.2 %ID/g | tissue uptake at 4 h (Bone uptake): 0.74 ± 0.09 %ID/g | tissue uptake at 24 h (Bone uptake): 0.11 ± 0.02 %ID/g | tissue uptake at 72 h (Bone uptake): 0.07 ± 0.01 %ID/g | tissue uptake at 120 h (Bone uptake): 0.07 ± 0.01 %ID/g | tissue uptake at 1 h (Brain uptake): 0.31 ± 0.02 %ID/g | tissue uptake at 4 h (Brain uptake): 0.18 ± 0.02 %ID/g | tissue uptake at 24 h (Brain uptake): 0.03 %ID/g | tissue uptake at 72 h (Brain uptake): 0.01 %ID/g | tissue uptake at 120 h (Brain uptake): 0.01 %ID/g | tissue uptake at 1 h (Fat uptake): 1.32 ± 0.17 %ID/g | tissue uptake at 4 h (Fat uptake): 1 ± 0.13 %ID/g | tissue uptake at 24 h (Fat uptake): 0.15 ± 0.06 %ID/g | tissue uptake at 72 h (Fat uptake): 0.08 ± 0.03 %ID/g | tissue uptake at 120 h (Fat uptake): 0.06 ± 0.03 %ID/g | tissue uptake at 1 h (Heart uptake): 4.41 ± 0.22 %ID/g | tissue uptake at 4 h (Heart uptake): 2.99 ± 0.36 %ID/g | tissue uptake at 24 h (Heart uptake): 0.36 ± 0.04 %ID/g | tissue uptake at 72 h (Heart uptake): 0.16 ± 0.01 %ID/g | tissue uptake at 120 h (Heart uptake): 0.1 ± 0.02 %ID/g | tissue uptake at 1 h (Intestine uptake): 1.26 ± 0.2 %ID/g | tissue uptake at 4 h (Intestine uptake): 1.03 ± 0.1 %ID/g | tissue uptake at 24 h (Intestine uptake): 0.49 ± 0.41 %ID/g | tissue uptake at 72 h (Intestine uptake): 0.15 ± 0.09 %ID/g | tissue uptake at 120 h (Intestine uptake): 0.05 ± 0.02 %ID/g | tissue uptake at 1 h (Kidneys uptake): 14.5 ± 3.33 %ID/g | tissue uptake at 4 h (Kidneys uptake): 12.4 ± 1.36 %ID/g | tissue uptake at 24 h (Kidneys uptake): 5.06 ± 0.91 %ID/g | tissue uptake at 72 h (Kidneys uptake): 2.28 ± 0.24 %ID/g | tissue uptake at 120 h (Kidneys uptake): 1.69 ± 0.58 %ID/g | tissue uptake at 1 h (Lacrimal uptake): 0.5 ± 0.05 %ID/g | tissue uptake at 4 h (Lacrimal uptake): 0.32 ± 0.13 %ID/g | tissue uptake at 24 h (Lacrimal uptake): 0.05 ± 0.01 %ID/g | tissue uptake at 72 h (Lacrimal uptake): 0.01 ± 0.01 %ID/g | tissue uptake at 120 h (Lacrimal uptake): 0.01 ± 0.01 %ID/g | tissue uptake at 1 h (Liver uptake): 3.95 ± 0.83 %ID/g | tissue uptake at 4 h (Liver uptake): 2.16 ± 0.17 %ID/g | tissue uptake at 24 h (Liver uptake): 0.45 ± 0.04 %ID/g | tissue uptake at 72 h (Liver uptake): 0.26 ± 0.01 %ID/g | tissue uptake at 120 h (Liver uptake): 0.22 ± 0.08 %ID/g | tissue uptake at 1 h (Lungs uptake): 9.01 ± 0.91 %ID/g | tissue uptake at 4 h (Lungs uptake): 6.35 ± 0.78 %ID/g | tissue uptake at 24 h (Lungs uptake): 1.09 ± 0.33 %ID/g | tissue uptake at 72 h (Lungs uptake): 0.29 ± 0.05 %ID/g | tissue uptake at 120 h (Lungs uptake): 0.15 ± 0.05 %ID/g | tissue uptake at 1 h (Muscle uptake): 1.42 ± 0.11 %ID/g | tissue uptake at 4 h (Muscle uptake): 1 ± 0.1 %ID/g | tissue uptake at 24 h (Muscle uptake): 0.11 ± 0.01 %ID/g | tissue uptake at 72 h (Muscle uptake): 0.04 ± 0.01 %ID/g | tissue uptake at 120 h (Muscle uptake): 0.05 ± 0.05 %ID/g | tissue uptake at 1 h (Pancreas uptake): 1.7 ± 0.17 %ID/g | tissue uptake at 4 h (Pancreas uptake): 1.21 ± 0.14 %ID/g | tissue uptake at 24 h (Pancreas uptake): 0.17 ± 0.03 %ID/g | tissue uptake at 72 h (Pancreas uptake): 0.07 ± 0.01 %ID/g | tissue uptake at 120 h (Pancreas uptake): 0.04 ± 0.01 %ID/g | tissue uptake at 1 h (Salivary uptake): 2.7 ± 0.29 %ID/g | tissue uptake at 4 h (Salivary uptake): 2.01 ± 0.17 %ID/g | tissue uptake at 24 h (Salivary uptake): 0.42 ± 0.07 %ID/g | tissue uptake at 72 h (Salivary uptake): 0.2 ± 0.03 %ID/g | tissue uptake at 120 h (Salivary uptake): 0.14 ± 0.02 %ID/g | tissue uptake at 1 h (Seminal uptake): 1.14 ± 0.17 %ID/g | tissue uptake at 4 h (Seminal uptake): 0.92 ± 0.2 %ID/g | tissue uptake at 24 h (Seminal uptake): 0.11 ± 0.03 %ID/g | tissue uptake at 72 h (Seminal uptake): 0.06 ± 0.01 %ID/g | tissue uptake at 120 h (Seminal uptake): 0.04 ± 0.01 %ID/g | tissue uptake at 1 h (Spleen uptake): 2.54 ± 0.6 %ID/g | tissue uptake at 4 h (Spleen uptake): 2.1 ± 0.39 %ID/g | tissue uptake at 24 h (Spleen uptake): 0.6 ± 0.05 %ID/g | tissue uptake at 72 h (Spleen uptake): 0.62 ± 0.14 %ID/g | tissue uptake at 120 h (Spleen uptake): 0.92 ± 0.3 %ID/g | tissue uptake at 1 h (Stomach uptake): 0.74 ± 0.14 %ID/g | tissue uptake at 4 h (Stomach uptake): 0.81 ± 0.04 %ID/g | tissue uptake at 24 h (Stomach uptake): 0.89 ± 0.84 %ID/g | tissue uptake at 72 h (Stomach uptake): 0.23 ± 0.16 %ID/g | tissue uptake at 120 h (Stomach uptake): 0.03 ± 0.01 %ID/g | tissue uptake at 1 h (Tail uptake): 3.57 ± 0.35 %ID/g | tissue uptake at 4 h (Tail uptake): 2.72 ± 0.61 %ID/g | tissue uptake at 24 h (Tail uptake): 0.4 ± 0.17 %ID/g | tissue uptake at 72 h (Tail uptake): 0.15 ± 0.03 %ID/g | tissue uptake at 120 h (Tail uptake): 0.19 ± 0.13 %ID/g | tissue uptake at 1 h (Testes uptake): 2.25 ± 0.3 %ID/g | tissue uptake at 4 h (Testes uptake): 2.68 ± 0.16 %ID/g | tissue uptake at 24 h (Testes uptake): 0.73 ± 0.32 %ID/g | tissue uptake at 72 h (Testes uptake): 0.34 ± 0.03 %ID/g | tissue uptake at 120 h (Testes uptake): 0.26 ± 0.04 %ID/g | tissue uptake at 1 h (Thyroid uptake): 3.79 ± 0.23 %ID/g | tissue uptake at 4 h (Thyroid uptake): 2.69 ± 0.26 %ID/g | tissue uptake at 24 h (Thyroid uptake): 0.55 ± 0.07 %ID/g | tissue uptake at 72 h (Thyroid uptake): 0.31 ± 0.04 %ID/g | tissue uptake at 120 h (Thyroid uptake): 0.19 ± 0.01 %ID/g | tissue uptake at 1 h (Tumor uptake): 15.6 ± 2.98 %ID/g | tissue uptake at 4 h (Tumor uptake): 46.5 ± 28.4 %ID/g | tissue uptake at 24 h (Tumor uptake): 54.3 ± 10.6 %ID/g | tissue uptake at 72 h (Tumor uptake): 66.3 ± 18.7 %ID/g | tissue uptake at 120 h (Tumor uptake): 74 ± 35.5 %ID/g
